# Reference: paper PMC11422484 (Cell Reports, 2024)
# Molecular target: full-length native GPC (strain Josiah) expressed on HEK293T cells (Lassa virus, strain Josiah, UniProt P08669)
# Experiment: flow cytometry on cells
# Conditions: one partner purified
binder,measurement,value
"25.10C IgG (antibody, V domains shown, IgG1) VH: QVQLQESGGGLVKPGGSLRLSCTASGFNFNKYNMNWVRQAPGKGLEWVSSISALSTYIYYADSLKGRFTVSRDNAKNSLFLQMNSLRDDDTAVYYCAREIRRASTWSADLWGRGTLVTVSS VL: DIQMTQSPSSLSASVGDRVIITCRASQSISSSLNWYQQKPGKAPKLLIYAAVNLETGVPSRFSGSGFGTDFTLAISNVQPEDFATYYCQQSDTRTFGRGTKLDVK",binding result,binds
